Measurements published in paper PMC9529537 (The Innovation, 2022).

B1: YD73 Fab (Fab, V domains shown)
VH: QVQLVQSGAEVKKPGASVKVSCKASGYTFIAYGISWVRQAPGQGLEWMGWISAHNGNTNYAQKFQGRVTVTTDTTTRTAFMELRNLRSDDTAVYYCARAPWEYNYRSSGYYDSPYWGQGTLVTVSS
VL: EIVLTQSPGTLSLSPGERATLSCRASQSVVSTYLAWYQQKPGQAPRLLIYDTSTRATGIPDRFSGSGSGTDFTLTISRLEPEDFAVYYCQHYDSSPPWTFGQGTKVEIK
B2: YD6 Fab (Fab, V domains shown)
VH: EVQLVESGGGLVKPGGSLRLSCAASGFIFSDYYMMWIRQAPGKGLEWISYISSSGSQIYYTESVKGRFTISRDNGKNLLYLQMNSLRGEDTALYYCATETGWRIDTWGQGTLVTVSS
VL: QAVLTQPASVSGSPGQSITISCTGTGSNIETYNLVSWYQRHPGKAPKLILYEVSERPSGVSNRFSGSKSGNTASLTISGLQAEDEADYFCCSYADTNIFWVFGGGTHLTVL
B3: YD6 scFv (scFv, V domains shown)
VH: B2 VH
VL: B2 VL

Biological target: yellow fever virus soluble envelope (E) protein (Yellow fever virus, strain CNYF01/2016 …)
Test: crystal structure

Binder | binding result
B1 | binds
B2 | binds
B3 | binds
